Measurements from patent US20170355757A1 (Regeneron, published 2017).

T1: monkey C5-mmh (monkey, UniProt P01031 19-1676 (human entry), limits assumed)
T1 construct: Recombinant monkey C5 with a C-terminal myc-myc-hexahistidine tag
T1 chain: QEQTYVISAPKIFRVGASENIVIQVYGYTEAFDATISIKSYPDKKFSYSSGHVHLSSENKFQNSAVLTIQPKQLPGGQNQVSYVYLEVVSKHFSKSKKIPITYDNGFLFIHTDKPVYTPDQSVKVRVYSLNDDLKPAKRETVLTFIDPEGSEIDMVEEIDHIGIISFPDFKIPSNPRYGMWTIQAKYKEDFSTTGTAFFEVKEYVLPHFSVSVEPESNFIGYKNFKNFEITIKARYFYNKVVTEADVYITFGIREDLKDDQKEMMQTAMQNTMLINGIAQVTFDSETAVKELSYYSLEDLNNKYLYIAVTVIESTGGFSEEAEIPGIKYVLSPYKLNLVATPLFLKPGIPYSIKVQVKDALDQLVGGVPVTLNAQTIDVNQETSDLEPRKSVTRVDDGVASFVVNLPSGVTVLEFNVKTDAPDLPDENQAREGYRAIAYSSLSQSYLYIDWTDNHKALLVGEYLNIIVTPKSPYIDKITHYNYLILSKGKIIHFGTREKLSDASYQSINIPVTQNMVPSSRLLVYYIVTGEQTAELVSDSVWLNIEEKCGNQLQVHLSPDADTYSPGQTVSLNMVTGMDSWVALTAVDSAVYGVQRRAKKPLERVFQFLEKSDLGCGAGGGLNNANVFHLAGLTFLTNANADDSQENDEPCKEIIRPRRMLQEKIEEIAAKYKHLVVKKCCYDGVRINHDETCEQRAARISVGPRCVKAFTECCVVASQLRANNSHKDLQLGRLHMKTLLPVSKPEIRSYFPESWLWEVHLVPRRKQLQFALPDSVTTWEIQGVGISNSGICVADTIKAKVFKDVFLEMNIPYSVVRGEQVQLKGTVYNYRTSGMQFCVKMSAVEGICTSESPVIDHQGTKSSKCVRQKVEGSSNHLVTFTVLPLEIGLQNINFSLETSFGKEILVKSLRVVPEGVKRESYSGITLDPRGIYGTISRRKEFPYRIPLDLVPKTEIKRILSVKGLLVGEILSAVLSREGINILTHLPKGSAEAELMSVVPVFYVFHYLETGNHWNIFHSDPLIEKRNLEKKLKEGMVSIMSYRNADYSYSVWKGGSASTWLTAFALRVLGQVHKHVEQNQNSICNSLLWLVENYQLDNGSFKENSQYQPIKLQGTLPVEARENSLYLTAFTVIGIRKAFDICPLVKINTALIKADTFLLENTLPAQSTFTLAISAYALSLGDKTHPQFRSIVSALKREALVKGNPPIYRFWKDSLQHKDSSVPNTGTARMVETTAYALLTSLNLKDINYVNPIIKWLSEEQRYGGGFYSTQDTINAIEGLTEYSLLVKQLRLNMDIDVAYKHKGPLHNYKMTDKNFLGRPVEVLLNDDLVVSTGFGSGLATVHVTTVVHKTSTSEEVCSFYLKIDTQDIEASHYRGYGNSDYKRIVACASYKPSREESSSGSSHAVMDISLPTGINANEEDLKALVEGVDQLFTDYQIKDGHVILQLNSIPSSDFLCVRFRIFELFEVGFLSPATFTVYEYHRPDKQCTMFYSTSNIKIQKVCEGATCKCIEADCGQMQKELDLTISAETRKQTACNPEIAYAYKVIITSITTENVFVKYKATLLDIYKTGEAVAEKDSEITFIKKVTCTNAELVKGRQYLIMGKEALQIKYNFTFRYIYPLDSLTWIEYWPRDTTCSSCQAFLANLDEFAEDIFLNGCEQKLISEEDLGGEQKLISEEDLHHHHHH

B1: H4H12164P (antibody, human IgG4, V domains shown)
VH: EVQLVESGGGLVRSGGSLRLSCAASGFTFNRYAMTWVRQAPGKGLEWVSAISGSGSSTYYTDSVKGRFTISRDNSKNSVDLQMHSLRVEDTAIYYCARGTTVTTGYGMDVWGQGTTVTVSS
VL: DIQMTQSPSSLSASVGDRVTFTCQASQDITNSLNWYQQKPGRAPKLLIYDASYLKAGVPSRFSGSGSGTDFTFTISSLQPEDIATYYCQQYDDLPYTFGQGTKLEIK
notes: Human IgG4 Fc with S108P hinge mutation (H4H)
B2: H4H12168P (antibody, human IgG4, V domains shown)
VH: QVQLVESGGGVVQPGGSLRLSCAASGFTFGGHAMHWVRQAPGKGLEWLAVISSDGSNKQYADSVKGRFTISRDNPKNTLYLQMNSLRVGDTAIYYCAKEVAPRYYYYGLDVWGQGTTVTVSS
VL: DIQMTQSPSSLSASVGDRVTITCRASQDISNFLAWYQQKPGKVPKLLIYTASTLQSGVPSRFSGSGSGTDFTLTVSSLQPEDVATYYCQKYAGALTFGPGTKVDIK
notes: as for B1
B3: H4H12170P (antibody, human IgG4, V domains shown)
VH: QVQLVESGGGVVQPGRSLRLSCAASGFTFSGYGMHWVRQAPGKGLEWVALIWLDGSNDYYADSVKGRFTISRDNSKNTLYLQMNRLRAEDTAVYYCARDGPVAAIPDYWGQGTLVTVSS
VL: DIQMTQSPSTLSASVGDRVTITCRASQSISRWLAWYQLKPGKAPKLLIYKASSLESGVPSRFSGSGSGTDFTLTISSLQPDDFATYYCQQYNTYSYTFGQGTKLEIK
notes: as for B1
B4: H4H11686N (antibody, V domains shown)
VH: QVQLVESGGGLVKPGGSLRLSCAASGFTFSDYYMSWIRQAPGKGLEWVSYISSSGNTIKYADSMKGRFTISRDNAKKSLFVEMNSLRAEDTAVYYCARYKSSSDYFDHWGQGTLVTVSS
VL: EIVLTQSPATLSLSPGERATLSCRASQSVRSYLAWYQQKPGQAPRLLIYDASNRATAIPARFSGSGSGTDFTLTISSLEPEDLAVYYCQQSGNWPLTFGGGTKVEIK
notes: also called H2M11686N

Target: T1, monkey C5-mmh
Test: SPR, mAb captured via anti-hFc, 37C
In short: (§1)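 Real-time surface plasmon resonance measures C5 binding to Fc-captured anti-C5 antibodies in HEPES-buffered saline, pH 7.4, containing EDTA and surfactant P20.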
In the case of B1, the “100 nM monkey C5-mmh Bound (RU)” value is reported as 99 RU, the Kd is reported as 6.3 nM and the koff is reported as 0.00117 s⁻¹. For the same binder, the kon was 186000 M⁻¹ s⁻¹ and the t1/2 was 10 min.
B2 was tested, and the “100 nM monkey C5-mmh Bound (RU)” value was 29 RU, the Kd was 12.7 nM and the koff was 0.000676 s⁻¹. The kon was 53300 M⁻¹ s⁻¹ and the t1/2 was 17 min.
B3 was tested, and the “100 nM monkey C5-mmh Bound (RU)” value was 60 RU, the Kd was 1.67 nM and the koff was 0.000871 s⁻¹. It also gave a kon of 521000 M⁻¹ s⁻¹ and a t1/2 of 13 min.
With B4 the “100 nM monkey C5-mmh Bound (RU)” value was 195 RU, the Kd was 8.88 nM and the koff was 0.00207 s⁻¹. For the same binder, the kon was 233000 M⁻¹ s⁻¹ and the t1/2 was 6 min.

What follows are binders tested against T2, human C5 R885H-mmh (human, UniProt P01031 19-1676) (assay: SPR, mAb captured via anti-hFc, 37C).
T2 construct: also called human C5 variant R885H
In short: as §1
B1 was tested, and the “100 nM Human C5 R885H-mmh Bound (RU)” value was 68 RU, the Kd was 5.46 nM and the koff was 0.00106 s⁻¹. The kon was 195000 M⁻¹ s⁻¹ and the t1/2 was 11 min.
In the case of B2, the “100 nM Human C5 R885H-mmh Bound (RU)” value is reported as 29 RU, the Kd is reported as 50.4 nM and the koff is reported as 0.00123 s⁻¹. It also gave a kon of 24300 M⁻¹ s⁻¹ and a t1/2 of 9 min.
For B3, the “100 nM Human C5 R885H-mmh Bound (RU)” value was 64 RU, the Kd was 1.5 nM and the koff was 0.000839 s⁻¹. It also gave a kon of 559000 M⁻¹ s⁻¹ and a t1/2 of 14 min.
B4 was tested, and the “100 nM Human C5 R885H-mmh Bound (RU)” value was 74 RU, the Kd was 1.91 nM and the koff was 0.0008 s⁻¹. It also gave a kon of 419000 M⁻¹ s⁻¹ and a t1/2 of 14 min.

The binders below were run against T3, human C5 R885C-mmh (human, UniProt P01031 19-1676) (assay: SPR, mAb captured via anti-hFc, 37C).
T3 construct: also called human C5 variant R885C
In short: as §1
In the case of B1, the “100 nM Human C5 R885C-mmh Bound (RU)” value is reported as 64 RU, the Kd is reported as 5.85 nM and the koff is reported as 0.00104 s⁻¹. It also gave a kon of 177000 M⁻¹ s⁻¹ and a t1/2 of 11 min.
For B2, the “100 nM Human C5 R885C-mmh Bound (RU)” value was 21 RU, the Kd was 8.9 nM and the koff was 0.000569 s⁻¹. The kon was 63800 M⁻¹ s⁻¹ and the t1/2 was 20 min.
B3 was tested, and the “100 nM Human C5 R885C-mmh Bound (RU)” value was 61 RU, the Kd was 2.05 nM and the koff was 0.00087 s⁻¹. It also gave a kon of 424000 M⁻¹ s⁻¹ and a t1/2 of 13 min.
For B4, the “100 nM Human C5 R885C-mmh Bound (RU)” value was 69 RU, the Kd was 2.78 nM and the koff was 0.000791 s⁻¹. It also gave a kon of 284000 M⁻¹ s⁻¹ and a t1/2 of 15 min.

Each binder was assayed against T2, human C5 R885H-mmh (assay: SPR, mAb captured via anti-hFc, 25C).
In short: as §1
B1 was tested, and the “100 nM Human C5 R885H-mmh Bound (RU)” value was 295 RU, the Kd was 1.19 nM and the koff was 0.000187 s⁻¹. For the same binder, the kon was 158000 M⁻¹ s⁻¹ and the t1/2 was 62 min.
B2 was tested, and the “100 nM Human C5 R885H-mmh Bound (RU)” value was 197 RU, the Kd was 4.05 nM and the koff was 0.000214 s⁻¹. The kon was 52900 M⁻¹ s⁻¹ and the t1/2 was 54 min.
B3 was tested, and the “100 nM Human C5 R885H-mmh Bound (RU)” value was 442 RU, the Kd was 0.394 nM and the koff was 0.000161 s⁻¹. It also gave a kon of 409000 M⁻¹ s⁻¹ and a t1/2 of 72 min.
With B4 the “100 nM Human C5 R885H-mmh Bound (RU)” value was 259 RU, the Kd was 0.491 nM and the koff was 0.000106 s⁻¹. For the same binder, the kon was 216000 M⁻¹ s⁻¹ and the t1/2 was 109 min.

Each binder was assayed against T3, human C5 R885C-mmh (assay: SPR, mAb captured via anti-hFc, 25C).
In short: as §1
For B1, the “100 nM Human C5 R885C-mmh Bound (RU)” value was 249 RU, the Kd was 1.19 nM and the koff was 0.000182 s⁻¹. For the same binder, the kon was 153000 M⁻¹ s⁻¹ and the t1/2 was 63 min.
In the case of B2, the “100 nM Human C5 R885C-mmh Bound (RU)” value is reported as 144 RU, the Kd is reported as 3.27 nM and the koff is reported as 0.000199 s⁻¹. For the same binder, the kon was 60900 M⁻¹ s⁻¹ and the t1/2 was 58 min.
With B3 the “100 nM Human C5 R885C-mmh Bound (RU)” value was 427 RU, the Kd was 0.447 nM and the koff was 0.00016 s⁻¹. For the same binder, the kon was 357000 M⁻¹ s⁻¹ and the t1/2 was 72 min.
B4 was tested, and the “100 nM Human C5 R885C-mmh Bound (RU)” value was 253 RU, the Kd was 0.534 nM and the koff was 9.49e-05 s⁻¹. The kon was 178000 M⁻¹ s⁻¹ and the t1/2 was 122 min.

The binders below were run against T4, human C5 (human, UniProt P01031 19-1676) (assay: SPR, mAb captured via anti-hFc, dissociation at pH7.4 vs pH6.0, 25C).
T4 construct: Bought human C5 (EMD #204888, said elsewhere to be purified from plasma); also called hC5; complement component 5
In short: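 Anti-C5 mAbs (human IgG4 Fc) captured on an amine-coupled mouse anti-human Fc surface; recombinant C5 dissociation followed by Biacore T200 in PBS-T (0.01M phosphate, 0.15M NaCl, 0.05% Tween-20) at pH7.4 or pH6.0. Dissociative half-life (t½) calculated from kd.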
For B1, the “t1/2 Ratio pH7.4/pH6.0” value was 0.3.
B2 was tested, and the “t1/2 Ratio pH7.4/pH6.0” value was 1.5.
B3 was tested, and the “t1/2 Ratio pH7.4/pH6.0” value was at most 0.5.
For B4, the “t1/2 Ratio pH7.4/pH6.0” value was 2.
